In the supplement of paper PMC10065799, “High-throughput profiling of sequence recognition by tyrosine kinases and SH2 domains using bacterial peptide display” (eLife, 2023):

Columns and labels:
Jak2 = Jak2 (UniProt O60674); assay: phosphorylation enrichment, bacterial display (enrichment ratio); higher = better substrate or ligand; peptides without Tyr show the background
Fes = Fes (UniProt P07332); assay: as above
Fer (mouse) = assay: as above
MERTK = MERTK (UniProt Q12866); assay: as above
AncSZ = assay: as above
EPHB2 = EPHB2 (UniProt P29323); assay: as above
c-Abl (mouse) = assay: as above
EPHB1 = EPHB1 (UniProt P54762); assay: as above
EPHB1, sequence (P54762 whole entry, looked up): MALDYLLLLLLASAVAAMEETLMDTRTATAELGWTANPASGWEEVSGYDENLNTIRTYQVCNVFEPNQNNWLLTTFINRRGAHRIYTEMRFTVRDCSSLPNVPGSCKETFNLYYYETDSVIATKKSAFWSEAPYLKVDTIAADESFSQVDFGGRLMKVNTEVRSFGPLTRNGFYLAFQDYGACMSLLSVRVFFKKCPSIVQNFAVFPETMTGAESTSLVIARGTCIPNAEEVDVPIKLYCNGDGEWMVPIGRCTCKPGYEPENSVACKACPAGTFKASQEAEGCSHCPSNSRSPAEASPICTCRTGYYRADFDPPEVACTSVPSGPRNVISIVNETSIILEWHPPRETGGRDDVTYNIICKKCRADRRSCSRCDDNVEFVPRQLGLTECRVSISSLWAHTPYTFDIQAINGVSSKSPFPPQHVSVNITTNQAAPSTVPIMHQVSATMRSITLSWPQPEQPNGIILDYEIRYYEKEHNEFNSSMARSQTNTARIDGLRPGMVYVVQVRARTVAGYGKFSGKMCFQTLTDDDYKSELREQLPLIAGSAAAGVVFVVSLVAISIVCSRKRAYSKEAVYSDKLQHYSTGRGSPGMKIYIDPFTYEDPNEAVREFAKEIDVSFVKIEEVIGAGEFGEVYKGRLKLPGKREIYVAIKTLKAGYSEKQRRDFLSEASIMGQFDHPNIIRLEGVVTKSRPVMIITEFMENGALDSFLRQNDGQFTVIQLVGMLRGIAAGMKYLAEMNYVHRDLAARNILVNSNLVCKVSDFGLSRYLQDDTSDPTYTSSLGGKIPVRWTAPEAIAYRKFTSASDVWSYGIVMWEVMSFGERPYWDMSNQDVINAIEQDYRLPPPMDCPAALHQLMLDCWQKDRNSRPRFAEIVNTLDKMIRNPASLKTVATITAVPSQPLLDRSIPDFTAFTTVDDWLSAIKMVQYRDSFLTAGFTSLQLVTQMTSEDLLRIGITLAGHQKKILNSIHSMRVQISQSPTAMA

FGFR1 = FGFR1 (UniProt P11362); assay: as above
FGFR1, sequence (P11362 whole entry, looked up): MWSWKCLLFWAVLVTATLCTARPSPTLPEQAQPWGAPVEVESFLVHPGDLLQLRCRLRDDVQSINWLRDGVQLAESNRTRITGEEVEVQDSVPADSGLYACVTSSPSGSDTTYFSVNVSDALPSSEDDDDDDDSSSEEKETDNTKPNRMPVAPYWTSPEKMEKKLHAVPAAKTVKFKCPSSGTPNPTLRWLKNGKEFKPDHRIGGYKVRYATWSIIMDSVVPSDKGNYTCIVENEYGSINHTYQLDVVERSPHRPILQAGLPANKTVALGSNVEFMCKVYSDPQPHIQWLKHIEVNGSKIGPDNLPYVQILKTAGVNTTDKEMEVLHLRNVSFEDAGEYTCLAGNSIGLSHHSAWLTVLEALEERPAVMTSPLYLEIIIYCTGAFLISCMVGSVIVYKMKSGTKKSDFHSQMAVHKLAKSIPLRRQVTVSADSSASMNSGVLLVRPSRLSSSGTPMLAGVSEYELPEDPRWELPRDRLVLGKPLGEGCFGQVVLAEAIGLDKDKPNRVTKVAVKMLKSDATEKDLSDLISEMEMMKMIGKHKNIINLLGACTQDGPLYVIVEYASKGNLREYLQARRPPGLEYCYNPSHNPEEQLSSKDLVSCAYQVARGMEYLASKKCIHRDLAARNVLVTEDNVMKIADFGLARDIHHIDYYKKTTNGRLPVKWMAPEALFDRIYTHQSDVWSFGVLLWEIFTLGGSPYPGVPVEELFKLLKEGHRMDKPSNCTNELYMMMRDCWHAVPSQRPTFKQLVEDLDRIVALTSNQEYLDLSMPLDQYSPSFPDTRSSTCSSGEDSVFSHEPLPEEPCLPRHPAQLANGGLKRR

Fyn = Fyn (UniProt P06241); assay: as above
Fyn, sequence (P06241 whole entry, looked up): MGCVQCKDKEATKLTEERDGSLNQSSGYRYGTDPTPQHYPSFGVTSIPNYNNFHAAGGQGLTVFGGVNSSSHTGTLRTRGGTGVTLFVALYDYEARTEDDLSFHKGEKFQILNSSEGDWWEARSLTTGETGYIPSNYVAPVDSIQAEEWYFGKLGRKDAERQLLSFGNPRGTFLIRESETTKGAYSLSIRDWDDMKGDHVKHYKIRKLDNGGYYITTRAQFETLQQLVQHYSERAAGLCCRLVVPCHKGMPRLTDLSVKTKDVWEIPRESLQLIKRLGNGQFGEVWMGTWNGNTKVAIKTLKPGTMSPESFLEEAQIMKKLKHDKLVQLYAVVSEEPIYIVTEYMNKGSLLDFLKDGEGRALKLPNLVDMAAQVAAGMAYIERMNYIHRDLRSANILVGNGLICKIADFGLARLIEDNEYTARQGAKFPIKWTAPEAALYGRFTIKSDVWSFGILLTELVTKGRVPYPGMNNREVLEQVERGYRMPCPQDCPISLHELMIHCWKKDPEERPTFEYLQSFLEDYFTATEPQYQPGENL

c-Src = assay: as above
FGFR3 = FGFR3 (UniProt P22607); assay: as above
FGFR3, sequence (P22607 whole entry, looked up): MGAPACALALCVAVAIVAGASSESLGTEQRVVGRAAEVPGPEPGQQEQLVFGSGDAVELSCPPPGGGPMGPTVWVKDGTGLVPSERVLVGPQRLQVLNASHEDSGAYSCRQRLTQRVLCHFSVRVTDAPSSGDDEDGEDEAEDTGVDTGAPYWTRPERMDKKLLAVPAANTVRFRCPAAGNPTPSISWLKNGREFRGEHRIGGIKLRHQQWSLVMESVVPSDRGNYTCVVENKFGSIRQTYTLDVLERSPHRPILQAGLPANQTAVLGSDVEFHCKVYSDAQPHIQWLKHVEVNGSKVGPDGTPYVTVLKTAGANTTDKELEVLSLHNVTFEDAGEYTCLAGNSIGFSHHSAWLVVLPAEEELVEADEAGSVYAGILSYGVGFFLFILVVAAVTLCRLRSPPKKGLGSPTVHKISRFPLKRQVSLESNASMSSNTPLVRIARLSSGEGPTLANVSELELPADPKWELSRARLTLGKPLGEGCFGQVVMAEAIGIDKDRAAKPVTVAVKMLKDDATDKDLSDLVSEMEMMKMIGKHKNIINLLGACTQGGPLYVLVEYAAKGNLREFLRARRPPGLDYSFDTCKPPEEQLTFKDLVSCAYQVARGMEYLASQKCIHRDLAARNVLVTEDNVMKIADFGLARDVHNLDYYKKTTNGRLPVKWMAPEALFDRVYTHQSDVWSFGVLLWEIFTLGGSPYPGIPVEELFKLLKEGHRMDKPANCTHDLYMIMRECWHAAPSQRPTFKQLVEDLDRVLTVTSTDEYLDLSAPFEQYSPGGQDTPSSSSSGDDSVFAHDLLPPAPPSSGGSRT

Hck = Hck (UniProt P08631); assay: as above
SHP2-C SH2 = assay: SH2 binding enrichment of the phosphorylated peptide, bacterial display (enrichment ratio); higher = better substrate or ligand; peptides without Tyr show the background
c-Src SH2 = assay: as above
Grb2 SH2 = Grb2 SH2 (UniProt P62993); assay: as above
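Wherever SH2 binding enrichment of the phosphorylated peptide, bacterial display is given: peptide library displayed on the E. coli surface as eCPX fusions, selected cells deep-sequenced, score is each peptide's frequency after selection divided by its frequency in the input.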
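Wherever phosphorylation enrichment, bacterial display is given: 11-residue human phosphosite peptides and single-mutation variants displayed on the E. coli surface, counted by deep sequencing, each peptide's frequency after selection divided by its frequency in the unselected input library; frequency after pTyr selection over input frequency; kinase dosed for 20-30% of maximal phosphorylation in three min.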

MERTK, sequence (Q12866 whole entry, looked up): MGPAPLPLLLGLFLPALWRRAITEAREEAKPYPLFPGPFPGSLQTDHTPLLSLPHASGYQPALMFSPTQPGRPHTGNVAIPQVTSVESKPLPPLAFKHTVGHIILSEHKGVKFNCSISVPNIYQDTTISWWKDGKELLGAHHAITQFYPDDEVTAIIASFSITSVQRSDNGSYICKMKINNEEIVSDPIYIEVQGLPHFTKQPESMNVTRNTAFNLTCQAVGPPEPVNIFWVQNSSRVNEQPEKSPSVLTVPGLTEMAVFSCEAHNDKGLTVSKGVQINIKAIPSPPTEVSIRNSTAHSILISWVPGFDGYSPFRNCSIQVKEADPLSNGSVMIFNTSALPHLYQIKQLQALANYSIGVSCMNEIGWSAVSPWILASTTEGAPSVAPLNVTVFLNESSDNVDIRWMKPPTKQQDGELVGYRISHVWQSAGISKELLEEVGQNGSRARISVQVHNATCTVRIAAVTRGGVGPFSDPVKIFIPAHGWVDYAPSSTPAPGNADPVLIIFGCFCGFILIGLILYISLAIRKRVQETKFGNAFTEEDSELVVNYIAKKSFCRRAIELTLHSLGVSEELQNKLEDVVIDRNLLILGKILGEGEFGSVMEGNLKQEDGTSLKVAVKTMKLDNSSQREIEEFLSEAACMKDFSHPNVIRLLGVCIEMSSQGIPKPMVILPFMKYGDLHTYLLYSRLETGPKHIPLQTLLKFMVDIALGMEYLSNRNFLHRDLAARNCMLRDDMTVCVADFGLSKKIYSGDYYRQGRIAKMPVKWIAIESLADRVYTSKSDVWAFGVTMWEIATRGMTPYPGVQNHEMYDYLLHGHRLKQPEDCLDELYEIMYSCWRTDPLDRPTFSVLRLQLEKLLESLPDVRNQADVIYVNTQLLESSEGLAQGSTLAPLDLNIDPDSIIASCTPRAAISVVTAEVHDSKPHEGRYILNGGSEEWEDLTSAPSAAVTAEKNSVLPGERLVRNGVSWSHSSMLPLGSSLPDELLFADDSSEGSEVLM
Fes, sequence (P07332 whole entry, looked up): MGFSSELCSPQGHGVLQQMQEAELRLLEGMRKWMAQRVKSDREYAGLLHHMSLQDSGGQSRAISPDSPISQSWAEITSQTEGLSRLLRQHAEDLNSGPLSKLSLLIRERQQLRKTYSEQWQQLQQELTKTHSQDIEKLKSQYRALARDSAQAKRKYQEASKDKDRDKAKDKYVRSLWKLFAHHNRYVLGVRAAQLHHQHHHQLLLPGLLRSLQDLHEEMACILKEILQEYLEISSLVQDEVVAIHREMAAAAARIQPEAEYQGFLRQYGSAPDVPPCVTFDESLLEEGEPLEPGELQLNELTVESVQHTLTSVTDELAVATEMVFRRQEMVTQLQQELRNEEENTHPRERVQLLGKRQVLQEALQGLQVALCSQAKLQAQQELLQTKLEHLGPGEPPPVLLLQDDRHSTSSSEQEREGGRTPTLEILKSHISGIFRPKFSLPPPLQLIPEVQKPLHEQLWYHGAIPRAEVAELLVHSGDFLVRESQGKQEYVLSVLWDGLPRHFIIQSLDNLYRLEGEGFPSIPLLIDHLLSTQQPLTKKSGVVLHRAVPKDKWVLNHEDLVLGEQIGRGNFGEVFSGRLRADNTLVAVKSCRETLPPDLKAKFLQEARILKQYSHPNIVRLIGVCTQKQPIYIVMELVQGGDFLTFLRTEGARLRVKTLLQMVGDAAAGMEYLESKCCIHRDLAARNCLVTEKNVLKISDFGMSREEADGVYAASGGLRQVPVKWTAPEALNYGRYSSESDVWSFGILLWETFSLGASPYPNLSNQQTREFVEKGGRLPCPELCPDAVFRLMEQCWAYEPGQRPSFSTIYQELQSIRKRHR

Row | SH2 binding enrichment (SHP2-C SH2) | SH2 binding enrichment (c-Src SH2) | SH2 binding enrichment (Grb2 SH2) | Sequence | phosphorylation enrichment (Jak2) | phosphorylation enrichment (Fes) | phosphorylation enrichment (Fer (mouse)) | phosphorylation enrichment (MERTK) | phosphorylation enrichment (AncSZ) | phosphorylation enrichment (EPHB2) | phosphorylation enrichment (c-Abl (mouse)) | phosphorylation enrichment (EPHB1) | phosphorylation enrichment (FGFR1) | phosphorylation enrichment (Fyn) | phosphorylation enrichment (c-Src) | phosphorylation enrichment (FGFR3) | phosphorylation enrichment (Hck)
1 | 0.451 | 0.436 | 0.621 | RREGVYRNNID [PTEN_Y46_L42R] | 0.778 | 0.925 | 0.469 | 0.752 | 0.55 | 0.517 | 0.783 | 0.324 | 0.392 | 0.664 | 0.8 | 0.516 | 0.461
2 | 0.701 | 7.14 | 0.671 | EESREYDRLYE [PIK3R1_Y463_K459E] | 1.45 | 1.44 | 0.641 | 0.465 | 1.42 | 0.7 | 1.02 | 0.761 | 0.708 | 0.751 | 0.714 | 1.19 | 0.865
3 | 1.09 | 4.5 | 0.929 | FVTSMYNEILI [TRPV1_Y310_M315I] | 1.01 | 1.32 | 6.66 | 1.17 | 1.16 | 0.714 | 0.686 | 0.684 | 0.733 | 0.682 | 0.621 | 0.903 | 1.14
4 | 1.4 | 1.03 | 1.06 | AGREIYESDKC [TTN_Y4424] | 0.731 | 0.996 | 0.519 | 0.447 | 0.949 | 0.607 | 0.616 | 0.524 | 0.608 | 0.538 | 0.536 | 0.819 | 0.523
5 | 0.624 | 0.49 | 0.982 | RRESQYQENRG [LRCH3_Y354] | 0.582 | 0.571 | 0.563 | 0.472 | 0.835 | 0.494 | 0.73 | 0.431 | 0.479 | 0.637 | 0.475 | 0.663 | 0.503
6 | 0.571 | 0.75 | 0.765 | SFGENYDNSKS [MAN1B1_Y60] | 0.89 | 0.958 | 0.444 | 0.567 | 0.766 | 0.461 | 0.833 | 0.434 | 0.452 | 0.438 | 0.464 | 0.548 | 0.408
7 | 0.602 | 0.425 | 0.804 | FRQNVYIPGSN [PCDHGA1_Y895_YF] | 0.584 | 0.613 | 0.402 | 0.416 | 0.576 | 0.442 | 0.536 | 0.43 | 0.416 | 0.447 | 0.435 | 0.501 | 0.442
8 | 0.695 | 0.516 | 0.893 | IATTIYSGDKI [UGGT2_Y823_A821T] | 0.701 | 0.752 | 0.41 | 0.507 | 0.638 | 0.557 | 0.778 | 0.576 | 0.57 | 0.591 | 0.748 | 0.493 | 0.791
9 | 0.608 | 0.48 | 0.756 | GQKVAYGGTGD [ALDH3A1_Y305] | 0.417 | 0.558 | 0.384 | 0.412 | 0.582 | 0.342 | 0.569 | 0.268 | 0.354 | 0.349 | 0.371 | 0.416 | 0.387
10 | 0.838 | 2.31 | 0.716 | HNVAIYEGYAL [ACTC1_Y168_P166A] | 2.17 | 2.5 | 19.7 | 6.65 | 2.26 | 22.6 | 3.44 | 15.8 | 0.878 | 15.4 | 17.1 | 0.969 | 12.8
11 | 0.743 | 0.524 | 0.784 | DAASNYARGHY [TUBA3E_Y103] | 0.428 | 0.519 | 0.342 | 0.44 | 0.522 | 0.524 | 0.533 | 0.383 | 0.495 | 0.353 | 0.43 | 0.463 | 0.475
12 | 0.926 | 0.469 | 0.812 | FQEPVYSVAFS [TBL1X_Y509_H504Y_YF] | 0.925 | 3.7 | 16.6 | 11.7 | 4.02 | 24.6 | 27.4 | 18.1 | 3.68 | 11.8 | 7.54 | 3.49 | 10.2
13 | 0.672 | 1.01 | 0.78 | DENWFYTRPAS [RPS19_Y54_A57P] | 1.43 | 1.07 | 0.676 | 0.477 | 1.46 | 0.55 | 0.673 | 0.59 | 0.496 | 0.497 | 0.489 | 0.734 | 0.565
14 | 20.1 | 0.76 | 0.979 | AVRYIYTIDGS [DCX_Y105_G100A] | 0.972 | 1.2 | 0.439 | 0.629 | 0.948 | 0.552 | 0.727 | 0.65 | 0.579 | 3.86 | 3.18 | 0.709 | 1.41
15 | 0.726 | 0.552 | 0.85 | STFVPYEIKVQ [L1CAM_Y784] | 0.805 | 0.996 | 0.527 | 0.338 | 0.906 | 0.512 | 0.678 | 0.564 | 0.506 | 0.538 | 0.393 | 0.629 | 0.475
16 | 0.737 | 0.47 | 0.83 | ENQEIYQKAFD [KPNA1_Y493] | 1.08 | 1.15 | 0.686 | 0.616 | 1.43 | 0.576 | 1.03 | 0.579 | 0.522 | 0.866 | 1.45 | 0.643 | 1.2
17 | 0.784 | 0.509 | 1.02 | FFRDGYMPRQF [GSS_Y270_YF] | 0.592 | 0.82 | 0.407 | 0.493 | 0.634 | 0.4 | 0.482 | 0.415 | 0.597 | 0.393 | 0.345 | 0.55 | 0.455
